In patent EP0832971B1:
“And” between values parts separate entries of the source, which are not always exact repeats. Identical values can stand only once.

Key:
[1] = molecular target: HIV-1 strain HTLV-IIIB (virus grown in H9 cells; envelope glycoprotein gp120 on the virus) (HIV-1 strain HTLV-IIIB) (UniProt P04578); test: cell-based or functional assay
[2] = molecular target: gp120, the major envelope glycoprotein of HIV-I (radioiodinated 125I-gp120; unlabeled purified gp120) (HIV-1); test: saturation binding of 125I-gp120 in solution, immunoprecipitation with OKT4, Scatchard analysis

Substance | Indirect immunofluorescence (% positive cells), 1:4 inhibitor supernatant (% positive cells) [1] | Reverse transcriptase (cpm/ml x 10^5), 1:4 inhibitor supernatant [1] | Reverse transcriptase (cpm/ml x 10^5), undil. inhibitor supernatant [1] | Kd [2] | Indirect immunofluorescence (% positive cells), undil. inhibitor supernatant (% positive cells) [1]
gDCD4T (first 27 residues of mature HSV type I gD glycoprotein fused to mature CD4T; product of pRKGDCD4T) (from UniProt Q69091 1-27; P01730 1-368) (receptor) | 26.8 and 36.1 | 992000 cpm/ml and 1.13e+06 cpm/ml | 14000 cpm/ml and 23000 cpm/ml | 0.72 nM | –
CD4T (product of pRKCD4T: CD4 fused after residue 368 of mature CD4 to 9 residues coded by pBR322) (from UniProt P01730 26-393) (receptor) | 18 and 16.1 | 594000 cpm/ml and 372000 cpm/ml | 11000 cpm/ml and 15000 cpm/ml | 0.83 nM | 0.4 and 0.8
